Residue numbers refer to the chain shown, from its start.

In experiment [1] the target is M2 protein on influenza A/Puerto Rico/8/34 (H1N1) virus particles (influenza A virus A/Puerto Rico/8/34 (H1N1)) (UniProt P06821). Nature of the experiment: FAb fragments on whole PR8 virus.
The target is the same in experiment [2]. Nature of the experiment: SPR, Fab on influenza virus (A/Puerto Rico/8/34). (SPR reads the build-up and loss of mass on a sensor chip optically.)
In experiment [3] the test system is Influenza A (A/Puerto Rico/8/34) virus. In kind it is binding, influenza A virus H1N1.
Experiment [4] deals with M2 (A/Hong Kong/483/97) expressed on CHO cells. Type of experiment: binding, influenza A virus.
Experiment [5] has as its target T1, M2 protein on influenza A/Puerto Rico/8/34 (H1N1) virus particles (influenza A virus A/Puerto Rico/8/34 …, UniProt P06821 1-97). In words: FAb fragments on whole PR8 virus.
The target of experiment [6] is T1, M2 protein on influenza A/Puerto …. Nature of the experiment: SPR, Fab on influenza virus (A/Puerto Rico/8/34).

In experiment [1], cH14C2 Fab gave a Kd of 4000 nM, a koff of 0.00286 s⁻¹ and a kon of 500 M⁻¹ s⁻¹. Also, in experiment [2], the Kd came to 4000 nM, the koff amounted to 0.0018 s⁻¹ and the kon is 500 M⁻¹ s⁻¹.

B1: 3253_P10 (antibody, V domains shown)
VH: QVQLQESGPGLLKPSDTLALTCTVSGGSITSDYWSWIRQPPGRGLDWIGFFYNGGSTKYNPSLKSRVTISADTSKNQLSLKLTSVTAADTGVYYCARHDAKFSGSYYVASWGQGTRVTVSS
VL: DIQMTQSPSSLSASVGDRVTISCRASQSISTYLNWYQQQPGKAPKVLISGATDLQSGVPSRFSGSGSGTDFTLTISSLQPEDFATYYCQQSYNTPLIFGQGTKLEIK
In the case of B1, in experiment [3], the “Virus ELISA OD A450” value is 0.50. In addition, the “FACS M2-HK MFI” value in experiment [4] worked out at 43.

B2: 3244_I10 (antibody, V domains shown)
VH: B1 VH
VL: B1 VL with S49F, D53N
For the molecule B2, the “Virus ELISA OD A450” value in experiment [3] turned out to be 3.01. The “FACS M2-HK MFI” value in experiment [4] stood at 434.

B3: 3243_J07 (antibody, V domains shown)
VH: B1 VH with A100V
VL: B1 VL with D53N
As to B3, the “Virus ELISA OD A450” value in experiment [3] is 2.94. The “FACS M2-HK MFI” value in experiment [4] is on record as 131.

B4: TCN-032 Fab (Fab, V domains shown)
VH: QVQLQESGPGLVKPSETLSLTCTVSGSSISNYYWSWIRQSPGKGLEWIGFIYYGGNTKYNPSLKSRVTISQDTSKSQVSLTMSSVTAAESAVYFCARASCSGGYCILDYWGQGTLVTVS
VL: DIQMTQSPSSLSASVGDRVTITCRASQNIYKYLNWYQQRPGKAPKGLISAASGLQSGVPSRFSGSGSGTDFTLTITSLQPEDFATYYCQQSYSPPLTFGGGTRVEIK
In experiment [5], B4 returned a dissociation constant (Kd) of 3 nM, a dissociation rate constant (koff) of 0.0023 s⁻¹ and a kon of 740000 M⁻¹ s⁻¹. In experiment [6], this molecule gave a Kd of 3.2 nM, a koff of 0.0023 s⁻¹ and a kon of 740000 M⁻¹ s⁻¹.

B5: 3248_P18 (antibody, V domains shown)
VH: QVQLQESGPGLVKPSETLSLTCTVSGGSISAYHWSWIRQPPGKGLEWIGHIFDSGSTYYNPSLKSRVTISLDASKNQLSLRLTSVTASDTAIYYCARPLGSRYYYGMDVWGQGTTVTVSS
VL: DIQMTQSPSSLSASVGDRVTITCRASQSISRYLNWYQQKPGKAPKLLIYGASTLQNGAPSRFSGSGSGTDFTLTISSLQPEDSATYLCQQSYSVPAFGGGTKVEVK
B5: in experiment [3], the “Virus ELISA OD A450” value came out at 0.56. The “FACS M2-HK MFI” value in experiment [4] is on record as 967.

B6: 3259_J21 (antibody, V domains shown)
VH: QVQLQESGPRVVRPSETLSLTCTVSGGSISSYNWIWIRQPPGKGLEWIGHIYDYGRTFYNSSLQSRPTISVDASKNQLSLRLTSVTASDTAVYYCARPLGILHYYAMDLWGQGTTVTVSS
VL: DIQMTQSPLSVSVSVGDRVTIACRASQSIDKFLNWYQQKPGKAPKLLIYGASNLHSGAPSRFSASGSGTDFTLTITNIQTEDFATYLCQQSFSVPAFGGGTKVEIK
Regarding B6, the “Virus ELISA OD A450” value in experiment [3] is on record as 2.40. Further, the “FACS M2-HK MFI” value in experiment [4] came to 1673.

B7: 3245_O19 (antibody, V domains shown)
VH: EVQLVESGGGLVQPGGSLRLSCTASGLSVSSTYMNWVRQAPGKGLEWVSVFYSETRTYYADSVKGRFTVSRHNSNNTLYLQMNSLRVEDTAVYYCARVQRLSYGMDVWGQGTTVTVSS
VL: DIQMTQSPSSLSASVGDRVTITCRASQSISTYLNWYQKRPGKAPKLLVYGASTLQSGVPSRFSGSGSGTDFTLTIASLQPEDSATYYCQQTYSIPLFGQGTRLEIK
On to B7, for which, in experiment [3], the “Virus ELISA OD A450” value was 3.51. Moreover, in experiment [4], the “FACS M2-HK MFI” value is on record as 919.

B8: 3244_H04 (antibody, V domains shown)
VH: B7 VH with V87A
VL: B7 VL with T53S, T85V
Regarding B8, in experiment [3], the “Virus ELISA OD A450” value came to 3.31. The “FACS M2-HK MFI” value in experiment [4] is listed as 963.

B9: 3139_P23 (antibody, V domains shown)
VH: QVQLQESGPRLVKPSESLSLTCTVSGGSISNSFWGWIRQPPGEGLEWIGYVYNSGNTKYNPSLKSRVTISRDTSKSQLYMKLRSVTAADTAVYYCARHDDASHGYSISWGHGTLVTVSS
VL: DIQMTQSPSSLSASVGDRVTITCRASQTISTYLNWYQQKSGKAPKLLIYAASGLQSGVPSRFSGSGSGTDFTLTISSLQPEDFATYFCQQSYNTPLTFGQGTKVEIK
Turning to B9, the “Virus ELISA OD A450” value in experiment [3] is reported as 1.02. Moreover, the “FACS M2-HK MFI” value in experiment [4] is 110.

B10: 3136_G05 (antibody, V domains shown)
VH: QVQLQESGPGLVKPSETLSLTCSVSGGSISSDFWSWIRQPPGKGLEWIGYVYNRGSTKYSPSLKSRVTISADMSKNQFSLNMSSVTAADTAVYYCAKNGRSSTSWGIDVWGKGTTVTVSS
VL: DIQMTQSPSSLSASVGDRLTITCRASQSISTYLHWYQQKPGKAPKLLIYAASSLQSGVPSRFSGSRSGTDFTLTISSLQPDDFATYYCQQSYSPPLTFGPGTKVDMK
For B10, the “FACS M2-HK MFI” value in experiment [4] is on record as 109.

B11: 3260_D19 (antibody, V domains shown)
VH: DMQLVESGGGLVPPGGSLRLSCAASGFSVSDNYINWVRQAPGKGLDWVSVFYSADRTSYADSVKGRFTVSSHDSKNTVYLQMNSLRAEDTAVYYCARVQKSYYGMDVWGQGTTVTVSS
VL: GIQMTQSPSSLSASVGDRVTITCRASQSISRYLNWYLQKPGKAPKLLISGASSLQSGVPSRFSGTGSGTEFTLTISSLQPEDFATYYCQQTFSIPLFGQGTKVEIK
As for B11, the “Virus ELISA OD A450” value in experiment [3] came to 2.46. The “FACS M2-HK MFI” value in experiment [4] was determined as 846.

B12: 3242_P05 (antibody, V domains shown)
VH: B11 VH
VL: B11 VL
As to B12, in experiment [3], the “Virus ELISA OD A450” value is 0.50. For the same molecule, in experiment [4], the “FACS M2-HK MFI” value is 596.

B13: 3252_C13 (antibody, V domains shown)
VH: QVQLQESGPGLVKPSETLSLTCTVSGASISSDYWSWIRLPPGKGLEWIGYIYNRGSTKYTPSLKSRVTISLDTAENQFSLRLRSVTAADTAIYYCARHVGGHTYGIDYWGQGTLVTVSS
VL: DIQMTQSPSSLSASVGDRVTITCRASQSISNYLNWYQHKPGEAPKLLNYAASSLQSGVPSRFSASGSGTDFTLTISSLQPEDFATYYCQQSYNTPITFGQGTRLEIK
For the molecule B13, the “FACS M2-HK MFI” value in experiment [4] came out at 449.

B14: 3255_J06 (antibody, V domains shown)
VH: B13 VH with I92V
VL: B13 VL with T74S, S77G, Q100P
Consider B14, for which, in experiment [4], the “FACS M2-HK MFI” value is 442.

B15: 3420_I23 (antibody, V domains shown)
VH: QVQLQESGPGLVKPSETLSVTCKVSGDSISSYSWSWIRQPPGKGLEWVGYLYYSGSTKYNPSLKSRTTISVDTSTNQLSLKLSFVTAADTAVYFCARTGSESTTGYGMDVWGQGTTVTVSS
VL: B13 VL with N31T, H38Q, E42K, N48I, Q55H, A64G, T72A, N93S, T94P
Turning to B15, the “FACS M2-HK MFI” value in experiment [4] is reported as 112.

B16: 3362_B11 (antibody, V domains shown)
VH: QVQLQASGPGLVKPSETLSLTCTVSGDSITSGAYYWTWIRQHPGKGLEWIGYIYYSGNTYYNPSLKSRVTISLDTSKNQFSLKVNSVTAADTAVYYCARAASTSVLGYGMDVWGQGTTVTVSS
VL: B13 VL with N31R, H38Q, K39E, E42K, N48V, A64G, N93S, I96L
In the case of B16, in experiment [3], the “Virus ELISA OD A450” value amounted to 1.83. Besides, the “FACS M2-HK MFI” value in experiment [4] was 218.

B17: 3241_G23 (antibody, V domains shown)
VH: QVQLQQSGPGLVKPSQTLSLTCTVSGGPVSGGGYSWNWIRQRPGQGLEWVGFMFHSGSPRYNPTLKSRITISVDTSKNLVSLKLSSVTAADTAVYFCARVGQMDKYYAMDVWGQGTTVTVSS
VL: DIQMTQSPSSLSSSVGDRVTITCRASQSIGAYVNWYQQKAGKAPQVLIFGASNLQSGVPSRFSGSGSGTDFTLTISSLQPEDFATYFCQQTYSTPITFGQGTRLEIK
Take B17: the “Virus ELISA OD A450” value in experiment [3] is given as 3.02. Moreover, in experiment [4], the “FACS M2-HK MFI” value turned out to be 1697.

B18: TCN-031 Fab (Fab, V domains shown)
VH: EVQLVESGGGLVQPGGSLRISCAASGFTVSSNYMSWVRQAPGKGLEWVSVIYSGGSTYYADSVKGRFSFSRDNSKNTVFLQMNSLRAEDTAVYYCARCLSRMRGYGLDVWGQGTTVTVS
VL: DIQMTQSPSSLSASVGDRVTITCRTSQSISSYLNWYQQKPGKAPKLLIYAASSLQSGVPSRFSGSGSGTDFTLTISGLQPEDFATYYCQQSYSMPAFGQGTKLEIK
In experiment [5], B18 showed a Kd of 14 nM, a koff of 0.014 s⁻¹ and a kon of 1e+06 M⁻¹ s⁻¹. In addition, in experiment [6], the Kd came to 14 nM, the koff was found to be 0.014 s⁻¹ and the kon came out at 1e+06 M⁻¹ s⁻¹.

A word on the Kd: it is the equilibrium constant for the complex coming apart. A high value points to lower affinity. A word on the koff: it is a measure of how fast the partners let go of each other. Read a low koff as a long-lived complex. For orientation: kon means the rate constant with which the complex forms.
